This note sets out measurements from publication PMC7952577, “Overcoming the design, build, test bottleneck for synthesis of nonrepetitive protein-RNA cassettes”.

Common to all, as to test: iSort-seq, translational repression in E. coli Top10, 37 C
Settings in all cases: tags: C-GFP (kept); chain copies: 2

For data set [1], the target named is T1, Qbeta coat protein (strain MX1) (Qbeta virus (strain MX1), UniProt Q9T0R9).
T1 sequence: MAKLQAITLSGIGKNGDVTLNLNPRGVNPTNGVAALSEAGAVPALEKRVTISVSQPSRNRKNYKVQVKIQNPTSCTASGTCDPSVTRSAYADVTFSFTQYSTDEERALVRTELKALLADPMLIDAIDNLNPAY

The target of data set [2] is MS2 coat protein V29I dlFG (Escherichia phage MS2 (Bacteriophage …, UniProt P03612, V30I;del68-81insG)).
In a further data set the target is PP7 coat protein dlFG (Pseudomonas phage PP7 (Bacteriophage …, UniProt P03630, ins1-2LA;del68-75insSG)).

B1: qb_NOTpre_changeBulge_0004_d2 (ssRNA)
RNA: UUAAUUAAAGAGGAGAAAGGUACCCAUGGCAUGCAUGUCUAAGACAGCAUCUGUGAGCAAGGGCGAGGAGGAUAACAUGGCCAUCAUCAAGGAGUUCAUGCGCUUCAAGGUGCACAUGGAGGG
Take B1: the binding signal in data set [1] was 9.05 Rscore (log-likelihood ratio).

B2: ms2_wt_1_d1 (ssRNA)
RNA: UUAAUUAAAGAGGAGAAAGGUACCCAUGCACAUGAGGAUUACCCAUGUUGUGAGCAAGGGCGAGGAGGAUAACAUGGCCAUCAUCAAGGAGUUCAUGCGCUUCAAGGUGCACAUGGAGGG
Turning to B2, the binding signal in data set [2] was 21.6 Rscore (log-likelihood ratio).

B3: pp7_wt_5_d1 (ssRNA)
RNA: UUAAUUAAAGAGGAGAAAGGUACCCAUGCUAAGGAGUUUAUAUGGAAACCCUUAUGUGAGCAAGGGCGAGGAGGAUAACAUGGCCAUCAUCAAGGAGUUCAUGCGCUUCAAGGUGCACAUGGAGGG
B3: in the data set with PP7 coat protein dlFG, the binding signal was 6.62 Rscore (log-likelihood ratio).
